Where two headings read alike, the source gives them in different places.

Holding throughout (assay): ITC
For test [1], the target named is T1, RanGDP (wild-type Ran, GDP-bound) (Rattus norvegicus, UniProt P62828 1-216).
For test [2], the target named is T1, RanGDP (wild-type Ran, GDP-bound). The source holds these as a separate data set.
Test [3] has as its target RanGDP (wild-type Ran, GDP-bound) (Rattus norvegicus, UniProt P62828 1-216). The source holds these as a separate data set.

B1: Nup153-ZnF1 (domain or fragment)
chain: AGSSWQCDTCLLQNKVTDNKCIACQAAKL
The molecule B1 had a Kd in test [1] of 6 µM.

B2: Nup153-ZnF4 (domain or fragment)
chain: GSWDCEVCLVQNKADSTKCIACESAKPGTKSEFKGFGT
As for B2, in test [2], the dissociation constant (Kd) was 47 µM.

B3: Nup358-ZnF12 (domain or fragment)
chain: KEGSWWHCNSCSLKNASTAKKCVSCQNLNPSNKELVGPPLAETVFTPKTSPENVQDRFALVTPKKEGHWDCSICLVRNEPTVSRCIACQNTKSA
For the molecule B3, binding in test [2] was put at a Kd of 15 µM.

B4: Nup153-ZnF3 (domain or fragment)
chain: VGSWECPVCCVSNKAEDSRCVSCTSEKP
In the case of B4, the affinity in test [1], expressed as Kd, was 7 µM.

B5: Nup153-ZnF2 (domain or fragment)
chain: GTWDCDTCLVQNKPEAVKCVACETPKPG
In the case of B5, binding in test [2] was characterised by a dissociation constant (Kd) of 49 µM.

B6: Nup153-ZnF4D8Q (domain or fragment)
chain: GPLGSGSWQCEVCLVQNKADSTKCIACESAKPGTKSEFKGFGT
For B6, in test [3], the Kd worked out at 3 µM.

Source of the values: publication PMC2716403 (Journal of molecular biology, 2009).
